{"source": "patent US20080207540", "about": "“Method For the Identification of Compounds Modulating Reverse Transport of Cholesterol” (Genfit, published 2008)", "binders": {"B1": {"name": "hCyp7a wt (dsDNA)", "DNA 1": "GATCTCTTAGTTCAAGGCCAGTTAG", "DNA 2": "GATCCTAACTGGCCTTGAACTAAGA"}, "B2": {"name": "hCyp7a mut (dsDNA)", "DNA 1": "GATCTCTTAGTTCAATTCCAGTTAG", "DNA 2": "GATCCTAACTGGAATTGAACTAAGA"}, "B3": {"name": "LRHRE_ApoA1 mut (dsDNA)", "DNA 1": "GATCCGGGACAGAGCTGATTGTTGAACTA", "DNA 2": "GATCTAGTTCAACAATCAGCTCTGTCCCG"}, "B4": {"name": "FXRRE_ApoA1_h_1 (dsDNA)", "DNA 1": "CAGAGCTGATCCTTGAACTCTTAAGTT", "DNA 2": "AACTTAAGAGTTCAAGGATCAGCTCTG"}, "B5": {"name": "FXRRE_ApoA1_h_1_mut (dsDNA)", "DNA 1": "CAGAGCTGATCCTTGAAGTGTTAAGTT", "DNA 2": "AACTTAACACTTCAAGGATCAGCTCTG"}, "B6": {"name": "LRHRE_ApoA1_h_5 (-191/-171) (dsDNA)", "DNA 1": "GATCCGCAGCCCCCGCAGCTTGCTGTA", "DNA 2": "GATCTACAGCAAGCTGCGGGGGCTGCG"}, "B7": {"name": "LRHRE_ApoA1_h_6 (-178/-145) (dsDNA)", "DNA 1": "GATCCTTGCCCACTCTATTTGCCCAGCCCCAA", "DNA 2": "GATCTTGGGGCTGGGCAAATAGAGTGGGCAAG"}, "B8": {"name": "LRHRE_ApoA1_h_7 (-144/-122) (dsDNA)", "DNA 1": "GATCCGGGACAGAGCTGATCCTTGAACTA", "DNA 2": "GATCTAGTTCAAGGATCAGCTCTGTCCCG"}, "B9": {"name": "LRHRE_ApoA1_h_8 (-180/-158) (dsDNA)", "DNA 1": "GATCCAGCTTGCTGTTTGCCCACTCTATA", "DNA 2": "GATCTATAGAGTGGGCAAACAGCAAGCTG"}}, "key": {"LRH-1 (hLRH-1, NR5A2) [1]": {"biological_target": "T1, LRH-1 (hLRH-1, NR5A2) (Homo sapiens, UniProt O00482 O00482:1-541)", "T1 sequence (O00482 whole entry, one chain of several)": "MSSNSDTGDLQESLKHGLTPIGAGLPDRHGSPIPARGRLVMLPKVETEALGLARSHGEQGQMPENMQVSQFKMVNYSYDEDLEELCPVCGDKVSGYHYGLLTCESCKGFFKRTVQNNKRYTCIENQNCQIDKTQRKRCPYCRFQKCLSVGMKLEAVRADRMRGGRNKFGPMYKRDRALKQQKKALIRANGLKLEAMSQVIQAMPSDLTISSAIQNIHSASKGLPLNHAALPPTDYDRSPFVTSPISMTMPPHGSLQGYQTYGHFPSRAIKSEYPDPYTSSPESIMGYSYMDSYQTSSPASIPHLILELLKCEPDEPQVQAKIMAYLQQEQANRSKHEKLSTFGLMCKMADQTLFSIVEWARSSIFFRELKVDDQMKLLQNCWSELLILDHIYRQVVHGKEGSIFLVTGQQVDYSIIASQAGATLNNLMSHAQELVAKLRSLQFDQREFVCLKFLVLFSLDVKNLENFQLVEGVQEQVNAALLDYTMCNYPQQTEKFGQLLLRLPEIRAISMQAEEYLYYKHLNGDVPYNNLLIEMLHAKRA", "experiment": "EMSA; 2.5 mM MgCl2, 50 mM NaCl, room temperature; higher affinity than apo AI -144/-122 by competition (Example 4)", "conditions": "tags: none stated; TNT-T7 rabbit reticulocyte lysate, vector pCI-hLRH-1; label: 32P", "procedure": "(§1) 2 μl of rabbit reticulocyte lysate programmed by hLRH-1 were incubated for 15 minutes at room temperature in a final volume of 20 μl of buffer containing 10 mM HEPES, 2.5 mM MgCl₂, 10% glycerol, 2.5 mg/ml BSA, 50 mM NaCl and 0.5 mM DTT with 2.5 μg of polydl-dC and 1 μg of herring sperm DNA in the presence of the labelled double-stranded oligonucleotides (0.5 ng). The complexes were then separated by non-denaturing gel electrophoresis in TBE 0.25X buffer.\n(§2) In contrast, no complex was detected in the presence of labelled double-stranded oligonucleotide corresponding to the mutated response element (hCyp7a mut). […] On the other hand, a specific LRH-1/DNA complex formed with a labelled double-stranded oligonucleotide corresponding to fragment −144/−122 (LRHRE_ApoA1_h_{—}7) of the human apo AI gene promoter. Said fragment straddles regions B and C of the human apo AI promoter and contains, on the antisense strand, the sequence TCAAGGATC similar to the consensus sequence TCAAGGTCA of an LRH-1 response element."}, "LRH-1 (hLRH-1, NR5A2) [2]": {"biological_target": "T1, LRH-1 (hLRH-1, NR5A2)", "experiment": "EMSA; no complex; also no displacement as competitor (FIG. 4B)", "conditions": "tags: none stated; TNT-T7 rabbit reticulocyte lysate, vector pCI-hLRH-1; label: 32P", "procedure": "as §1, §2"}, "LRH-1 (hLRH-1, NR5A2) [3]": {"biological_target": "T1, LRH-1 (hLRH-1, NR5A2)", "experiment": "EMSA; no complex; no displacement as competitor (FIG. 4A)", "conditions": "tags: none stated; TNT-T7 rabbit reticulocyte lysate, vector pCI-hLRH-1; label: 32P", "procedure": "as §1, §2"}, "FXR [4]": {"biological_target": "T2, FXR (UniProt Q96RI1 Q96RI1:1-486)", "T2 sequence": "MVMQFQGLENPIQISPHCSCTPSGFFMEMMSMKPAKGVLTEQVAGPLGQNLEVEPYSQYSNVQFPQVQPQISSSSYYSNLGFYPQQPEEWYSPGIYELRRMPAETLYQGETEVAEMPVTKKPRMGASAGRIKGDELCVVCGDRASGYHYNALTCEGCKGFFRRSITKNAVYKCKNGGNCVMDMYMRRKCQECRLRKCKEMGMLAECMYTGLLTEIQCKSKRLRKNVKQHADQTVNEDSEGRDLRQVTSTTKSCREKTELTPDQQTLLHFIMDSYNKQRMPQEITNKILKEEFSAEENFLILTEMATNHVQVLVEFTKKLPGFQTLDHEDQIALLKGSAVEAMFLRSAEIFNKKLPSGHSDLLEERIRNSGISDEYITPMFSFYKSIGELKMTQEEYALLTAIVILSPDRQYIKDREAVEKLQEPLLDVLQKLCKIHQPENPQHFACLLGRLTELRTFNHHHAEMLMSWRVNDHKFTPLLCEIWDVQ", "experiment": "EMSA; no complex", "conditions": "tags: none stated; TNT-T7 rabbit reticulocyte lysate, vector pCDNA3-FXR; label: 32P"}, "LRH-1 (hLRH-1, NR5A2) [5]": {"biological_target": "T1, LRH-1 (hLRH-1, NR5A2)", "experiment": "EMSA; specific complex", "conditions": "tags: none stated; TNT-T7 rabbit reticulocyte lysate, vector pCI-hLRH-1; label: 32P"}, "FXR [6]": {"biological_target": "T2, FXR", "experiment": "EMSA; specific complex", "conditions": "tags: none stated; TNT-T7 rabbit reticulocyte lysate, vector pCDNA3-FXR; label: 32P"}, "FXR [7]": {"biological_target": "T2, FXR", "experiment": "EMSA; complex lost", "conditions": "tags: none stated; TNT-T7 rabbit reticulocyte lysate, vector pCDNA3-FXR; label: 32P"}, "LRH-1 (hLRH-1, NR5A2) [8]": {"biological_target": "T1, LRH-1 (hLRH-1, NR5A2)", "experiment": "EMSA; FXR site mutation does not affect LRH-1 binding", "conditions": "tags: none stated; TNT-T7 rabbit reticulocyte lysate, vector pCI-hLRH-1; label: 32P"}, "LRH-1 (hLRH-1, NR5A2) [9]": {"biological_target": "T1, LRH-1 (hLRH-1, NR5A2)", "experiment": "EMSA; no complex", "conditions": "tags: none stated; TNT-T7 rabbit reticulocyte lysate, vector pCI-hLRH-1; label: 32P", "procedure": "as §1, §2"}, "LRH-1 (hLRH-1, NR5A2) [10]": {"biological_target": "T1, LRH-1 (hLRH-1, NR5A2)", "experiment": "EMSA; specific complex; low affinity site, as competitor only partially displaces Cyp7a probe (FIG. 4A)", "conditions": "tags: none stated; TNT-T7 rabbit reticulocyte lysate, vector pCI-hLRH-1; label: 32P", "procedure": "as §1, §2"}}}
{"binder": "B1", "values": [{"measurement": "binding result", "setting": "LRH-1 (hLRH-1, NR5A2) [1]", "result": "binds"}]}
{"binder": "B2", "values": [{"measurement": "binding result", "setting": "LRH-1 (hLRH-1, NR5A2) [2]", "result": "no binding"}]}
{"binder": "B3", "values": [{"measurement": "binding result", "setting": "LRH-1 (hLRH-1, NR5A2) [3]", "result": "no binding"}, {"measurement": "binding result", "setting": "FXR [4]", "result": "no binding"}]}
{"binder": "B4", "values": [{"measurement": "binding result", "setting": "LRH-1 (hLRH-1, NR5A2) [5]", "result": "binds"}, {"measurement": "binding result", "setting": "FXR [6]", "result": "binds"}]}
{"binder": "B5", "values": [{"measurement": "binding result", "setting": "FXR [7]", "result": "no binding"}, {"measurement": "binding result", "setting": "LRH-1 (hLRH-1, NR5A2) [8]", "result": "binds"}]}
{"binder": "B6", "values": [{"measurement": "binding result", "setting": "LRH-1 (hLRH-1, NR5A2) [9]", "result": "no binding"}]}
{"binder": "B7", "values": [{"measurement": "binding result", "setting": "LRH-1 (hLRH-1, NR5A2) [9]", "result": "no binding"}]}
{"binder": "B8", "values": [{"measurement": "binding result", "setting": "FXR [4]", "result": "no binding"}, {"measurement": "binding result", "setting": "LRH-1 (hLRH-1, NR5A2) [10]", "result": "binds"}]}
{"binder": "B9", "values": [{"measurement": "binding result", "setting": "LRH-1 (hLRH-1, NR5A2) [9]", "result": "no binding"}]}
